Blank lines part the entries; values can stand above or below the binder they belong to.
Tests used:
[1] = target: T1, tsks fused to the GAL 4 activation domain (AD)
T1 chain: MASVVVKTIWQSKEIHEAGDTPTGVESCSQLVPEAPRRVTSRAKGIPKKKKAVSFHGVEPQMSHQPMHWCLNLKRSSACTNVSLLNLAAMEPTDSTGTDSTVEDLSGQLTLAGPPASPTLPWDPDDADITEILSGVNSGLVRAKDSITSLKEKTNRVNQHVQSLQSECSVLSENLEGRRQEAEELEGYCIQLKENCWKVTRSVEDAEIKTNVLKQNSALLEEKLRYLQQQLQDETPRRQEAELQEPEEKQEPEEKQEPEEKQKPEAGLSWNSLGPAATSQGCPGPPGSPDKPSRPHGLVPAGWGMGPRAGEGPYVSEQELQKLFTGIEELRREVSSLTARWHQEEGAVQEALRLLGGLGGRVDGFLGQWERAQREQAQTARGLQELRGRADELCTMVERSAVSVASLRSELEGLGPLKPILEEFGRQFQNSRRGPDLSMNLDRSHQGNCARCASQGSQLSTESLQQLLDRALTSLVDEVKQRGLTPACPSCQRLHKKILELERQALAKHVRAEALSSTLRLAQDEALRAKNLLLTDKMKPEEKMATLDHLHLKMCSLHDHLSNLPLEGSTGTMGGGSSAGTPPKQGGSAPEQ

[2] = target: T2, tssk 2 fused to the GAL4 DNA binding domain (DNA-BD) (human, UniProt P04386 1-147 (Saccharomyces cerevisiae entry), limits assumed); experiment: yeast two-hybrid, growth in His-free medium (AH109)
T2 construct: Yeast two-hybrid bait expressed in the AH109 reporter strain; also called bait gene (tssk 2); fusion protein of tssk 2 with the DNA-BD
Method: In this experiment, a bait gene (tssk 2) was first transformed into the reporter strain as a fusion to the GAL4 DNA binding domain (DNA-BD). A second plasmid that expressed tsks as fusion to the GAL 4 activation domain (AD) was also introduced into the AH109 reporter strain. Western blots were performed to confirm expression of fusion proteins in yeast. […] This interaction was used as a positive control. […] Neither GAL-AD alone nor the fusion proteins between GAL-AD and TSKS or GAL-AD and SV40 Large T antigen had the ability to activate transcription of the His gene.

B1: tssk 2 fused to the GAL4 DNA binding domain (DNA-BD) (protein)
chain: MKLLSSIEQACDICRLKKLKCSKEKPKCAKCLKNNWECRYSPKTKRSPLTRAHLTEVESRLERLEQLFLLIFPREDLDMILKMDSLQDIKALLTGLFVQDNVNKDAVTDRLASVETDMPLTLRQHRISATSSSEESSNKGQRQLTVSMDDATVLRKKGYIVGINLGKGSYAKVKSAYSERLKFNVAVKIIDRKKTPTDFVERFLPREMDILATVNHGSIIKTYEIFETSDGRIYIIMELGVQGDLLEFIKCQGALHEDVARKMFRQLSSAVKYCHDLDIVHRDLKCENLLLDKDFNIKLSDFGFSKRCLRDSNGRIILSKTFCGSAAYAAPEVLQSIPYQPKVYDIWSLGVILYIMVCGSMPYDDSDIRKMLRIQKEHRVDFPRSKNLTCECKDLIYRMLQPDVSQRLHIDEILSHSWLQPPKPKATSSASFKREGEGKYRAECKLDTKTGLRPDHRPDHKLGAKTQHRLLVVPENENRMEDRLAETSRAKDHHISGAEVGKAST
transcription of the Histidine (HIS) gene; growth of yeast in His-free medium [1]: promote transcription of the Histidine (HIS) gene and allow for the growth of yeast in His-free medium

binding result [2]: no binding
B2: GAL 4 activation domain alone (GAL-AD plasmid) (other, UniProt P04386 768-881, looked up)
chain: ANFNQSGNIADSSLSFTFTNSSNGPNLITTQTNSQALSQPIASSNVHDNFMNNEITASKIDDGNNSKPLSPGWTDQTAYNAFGITTGMFNTTTMDDVYNYLFDDEDTPPNPKKE
notes: Negative-control prey without an insert; also called GAL-AD alone

— US20050032146A1 (published 2005)
